Results as given in paper PMC5653649, “Evolution of AF6-RAS association and its implications in mixed-lineage leukemia” (Nature Communications, 2017).

B1: AF6 αN helix fragment (residues 6–36) (domain or fragment, UniProt Q9QZQ1 6-36, looked up)
chain: RDEERRKLADIIHHWNANRLDLFEISQPTED
notes: AF6/afadin residues 6-36 encompassing the αN helix (31 residues); also called AF6 6–36; αN helix alone; source: E. coli BL21, purified (glutathione resin, thrombin cleavage, size exclusion chromatography); not shown: GST, N-terminal, cleaved
B2: AF6 αN-extended RA1 domain (residues 6–136) (domain or fragment, UniProt Q9QZQ1 6-136, looked up)
chain: RDEERRKLADIIHHWNANRLDLFEISQPTEDLEFHGVMRFYFQDKAAGNFATKCIRVSSTATTQDVIETLAEKFRPDMRMLSSPKYSLYEVHVSGERRLDIDEKPLVVQLNWNKDDREGRFVLKNENDAIP
notes: AF6/afadin αN helix and RA1 domain, residues 6-136; also called αN-RA1; αN/RA1; source: E. coli BL21, purified (glutathione resin, thrombin cleavage, size exclusion chromatography); not shown: GST, N-terminal, cleaved
B3: BTBD18 (residues 97–134) fused upstream of the ARAF RBD domain (residues 17–94) (other, UniProt B2RXH4 97-134, looked up)
chain: EMEVSQEEAQDVLSAARQLRVSELESLQLEGGKLVKAPAVGTVKVYLPNKQRTVVTVRDGMSVYDSLDKALKVRGLNQDCCVVYRLIKGRKTVTAWDTAIAPLDGEELIVEVLEDV
notes: human BTBD18, Gene ID 643376, residues 97-134 (helix-turn-helix with a hydrophobic patch); source: E. coli BL21, purified (expressed from pGEX-4T2); not shown: GST, N-terminal, cleaved
B4: AF6 RA1 domain (residues 37–136) (domain or fragment, UniProt Q9QZQ1 37-136, looked up)
chain: LEFHGVMRFYFQDKAAGNFATKCIRVSSTATTQDVIETLAEKFRPDMRMLSSPKYSLYEVHVSGERRLDIDEKPLVVQLNWNKDDREGRFVLKNENDAIP
notes: AF6/afadin first RAS association (RA1) domain, residues 37-136; 15N-labelled for the NMR titration; The monomer fraction was used for crystallisation; also called core RA1 domain; core AF6 RA domain; source: E. coli BL21, purified (glutathione resin, thrombin cleavage, size exclusion chromatography); not shown: GST, N-terminal, cleaved

Tests used:
[1] = target: B4; experiment: NMR titration; AF6 6–36 fragment titrated into 15N-AF6 RA1; 1H/15N-HSQC; 25 °C; 20 mM Tris-HCl pH 7.5, 100 mM NaCl, 1 mM DTT, 5 mM MgCl2, 10% D2O; settings: both partners purified
[2] = target: T1, H-RAS (residues 1–171), GMPPNP-loaded (human, UniProt P01112 1-171); experiment: ITC; Microcal VP-ITC; RA domains titrated into GMPPNP-loaded RAS; 20 mM Tris-HCl pH 7.5, 100 mM NaCl, 5 mM MgCl2, 1 mM DTT; 25 °C; settings: both partners purified
T1 construct: wild-type H-RAS, human cDNA, Gene ID 3265, residues 1-171; also called RAS-GMPPNP; source: E. coli BL21, purified (Ni-NTA, thrombin, size exclusion chromatography), loaded with GMPPNP; not shown: HIS tag, N-terminal, cleaved

[3] = target: the molecule itself; experiment: native gel or EMSA; blue native PAGE (BN–PAGE), 15% acrylamide; proteins purified by size exclusion chromatography and concentrated to 100–150 μM
[4] = target: the molecule itself; experiment: SEC; size exclusion chromatography of the purified domain at several concentrations (S75 or S200 column)

B1
binding result [1]: binds

B2
Kd [2]: 4.1 µM

B3
stoichiometry N [3]: 2

B4
stoichiometry N [4]: 2 | Kd [2]: 17.8 µM
